Target: GIV (Gα-interacting vesicle-associated protein, also known as Girdin), endogenous (human (endogenous in THP1)) (UniProt Q3V6T2)
UniProt Q3V6T2, sequence (Q3V6T2 whole entry): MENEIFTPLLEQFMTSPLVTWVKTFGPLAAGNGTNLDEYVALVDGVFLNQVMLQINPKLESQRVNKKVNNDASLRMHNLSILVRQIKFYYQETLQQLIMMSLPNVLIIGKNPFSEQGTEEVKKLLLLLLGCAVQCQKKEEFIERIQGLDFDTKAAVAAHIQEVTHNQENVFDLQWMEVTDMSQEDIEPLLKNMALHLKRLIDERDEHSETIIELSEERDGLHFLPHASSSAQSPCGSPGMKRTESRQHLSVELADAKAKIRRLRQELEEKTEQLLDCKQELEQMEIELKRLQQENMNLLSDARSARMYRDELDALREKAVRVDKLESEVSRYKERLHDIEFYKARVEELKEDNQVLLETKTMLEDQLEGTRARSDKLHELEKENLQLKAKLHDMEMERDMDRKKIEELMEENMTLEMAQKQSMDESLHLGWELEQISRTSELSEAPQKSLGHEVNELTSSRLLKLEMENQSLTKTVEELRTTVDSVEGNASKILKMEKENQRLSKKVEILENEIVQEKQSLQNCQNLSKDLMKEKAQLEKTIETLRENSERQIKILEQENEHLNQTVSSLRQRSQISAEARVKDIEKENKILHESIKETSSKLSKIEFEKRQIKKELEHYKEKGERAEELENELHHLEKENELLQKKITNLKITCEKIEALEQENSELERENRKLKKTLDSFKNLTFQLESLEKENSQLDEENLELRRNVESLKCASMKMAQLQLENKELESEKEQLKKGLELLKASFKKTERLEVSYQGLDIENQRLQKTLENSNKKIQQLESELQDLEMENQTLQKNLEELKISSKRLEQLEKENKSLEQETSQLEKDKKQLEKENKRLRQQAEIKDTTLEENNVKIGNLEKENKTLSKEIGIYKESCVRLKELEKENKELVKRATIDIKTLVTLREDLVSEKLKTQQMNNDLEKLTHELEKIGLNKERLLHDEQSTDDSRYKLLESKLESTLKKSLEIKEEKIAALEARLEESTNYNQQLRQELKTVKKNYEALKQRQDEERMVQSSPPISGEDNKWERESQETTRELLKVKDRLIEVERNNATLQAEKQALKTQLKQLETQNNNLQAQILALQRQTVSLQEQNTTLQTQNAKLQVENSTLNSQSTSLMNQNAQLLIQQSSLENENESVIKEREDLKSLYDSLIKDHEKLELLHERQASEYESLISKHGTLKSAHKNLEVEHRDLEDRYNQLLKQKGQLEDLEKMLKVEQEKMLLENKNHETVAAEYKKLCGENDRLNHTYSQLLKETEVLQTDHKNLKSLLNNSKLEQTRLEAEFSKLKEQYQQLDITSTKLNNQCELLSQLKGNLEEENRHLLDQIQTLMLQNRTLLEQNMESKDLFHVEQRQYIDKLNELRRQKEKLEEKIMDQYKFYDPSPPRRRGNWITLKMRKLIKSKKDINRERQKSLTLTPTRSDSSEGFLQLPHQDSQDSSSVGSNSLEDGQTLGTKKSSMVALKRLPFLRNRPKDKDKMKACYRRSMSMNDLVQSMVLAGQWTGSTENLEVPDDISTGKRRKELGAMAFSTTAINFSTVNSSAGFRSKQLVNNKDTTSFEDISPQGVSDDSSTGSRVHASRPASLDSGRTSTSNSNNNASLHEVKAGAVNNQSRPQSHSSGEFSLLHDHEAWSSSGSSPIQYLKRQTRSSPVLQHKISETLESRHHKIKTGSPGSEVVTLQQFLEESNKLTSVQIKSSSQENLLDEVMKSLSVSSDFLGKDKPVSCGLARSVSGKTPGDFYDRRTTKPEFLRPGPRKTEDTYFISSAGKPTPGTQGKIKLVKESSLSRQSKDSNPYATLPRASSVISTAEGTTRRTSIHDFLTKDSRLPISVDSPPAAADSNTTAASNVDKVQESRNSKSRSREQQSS

Substance: HA-tagged NOD2–1007fs (from UniProt Q9HC29 1-1040) (natural protein)
- suppression of LPS (100 ng/ml)-induced NFκB activation by MDP (10 μg/ml) pretreatment, luciferase reporter assay in HeLa cells transfected with NOD2-1007fs (% protection): 20%
